The source of these data is publication PMC1952073, “The N-Myc Down Regulated Gene1 (NDRG1) Is a Rab4a Effector Involved in Vesicular Recycling of E-Cadherin” (PLoS ONE, 2007).

For this assay, the target named is T1, recombinant flag-tagged NDRG1 purified from Drosophila S2 cells (human, UniProt Q92597-1 1-394).
T1 construct: NDRG1; The vector pMT/BiP/V5-His adds a BiP secretion signal (the protein was collected as secreted protein); also called NDRG1flag; NDRG1Flag; not shown: Flag, C-terminal, kept
The assay can be described thus: pull-down; NDRG1Flag bound to M2 agarose; 1 microgram of purified Rab4aGST loaded with 10 µM GTPγS (30 min, 37 °C) in 20 mM HEPES, 1 mM MgCl2, 1 mM DTT, 100 mM potassium acetate, incubated 1 h; Western blot. The following applies: both partners purified.

T1 sequence (Q92597 whole entry): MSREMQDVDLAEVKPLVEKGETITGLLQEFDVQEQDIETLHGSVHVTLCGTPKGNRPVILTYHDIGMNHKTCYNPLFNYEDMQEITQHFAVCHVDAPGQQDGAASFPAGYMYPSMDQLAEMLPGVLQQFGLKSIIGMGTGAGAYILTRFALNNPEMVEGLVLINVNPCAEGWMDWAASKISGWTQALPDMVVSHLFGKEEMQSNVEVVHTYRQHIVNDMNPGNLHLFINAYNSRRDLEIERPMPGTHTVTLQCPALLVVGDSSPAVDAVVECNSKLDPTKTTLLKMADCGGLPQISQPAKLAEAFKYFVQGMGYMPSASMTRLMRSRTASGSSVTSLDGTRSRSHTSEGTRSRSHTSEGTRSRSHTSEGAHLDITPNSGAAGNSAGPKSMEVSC

B1: Rab4a produced as a GST fusion protein (natural protein, UniProt P20338 1-218, looked up)
chain: MSQTAMSETYDFLFKFLVIGNAGTGKSCLLHQFIEKKFKDDSNHTIGVEFGSKIINVGGKYVKLQIWDTAGQERFRSVTRSYYRGAAGALLVYDITSRETYNALTNWLTDARMLASQNIVIILCGNKKDLDADREVTFLEASRFAQENELMFLETSALTGENVEEAFVQCARKILNKIESGELDPERMGSGIQYGDAALRQLRSPRRAQAPNAQECGC
notes: Rab4a amplified from a prostate cDNA library and cloned in PGEX2T; also called Rab4aGST; recombinant Rab4a; source: E. coli BL21 (DE3), purified (glutathione agarose)
As to B1, the binding result is on record as “binds”.
